From patent US20240262879

B1: rhMMP7 (protein)
chain: YSLFPNSPKWTSKVVTYRIVSYTRDLPHITVDRLVSKALNMWGKEIPLHFRKVVWGTADIMIGFARGAHGDSYPFDGPGNTLAHAFAPGTGLGGDAHFDEDERWTDGSSLGINFLYAATHELGHSLGMGHSSDPNAVMYPTYGNGDPQNFKLSQDDIKGIQKLYGKRSNSRKK
B2: rhMMP1 (protein)
chain: FVLTEGNPRWEQTHLTYRIENYTPDLPRADVDHAIEKAFQLWSNVTPLTFTKVSEGQADIMISFVRGDHRDNSPFDGPGGNLAHAFQPGPGIGGDAHFDEDERWTNNFREYNLHRVAAHELGHSLGLSHSTDIGALMYPSYTFSGDVQLAQDDIDGIQAIYGRSQNPVQPIGPQTPKACDSKLTFDAITTIRGEVMFFKDRFYMRTNPFYPEVELNFISVFWPQLPNGLEAAYEFADRDEVRFFKGNKYWAVQGQNVLHGYPKDIYSSFGFPRTVKHIDAALSEENTGKTYFFVANKYWRYDEYKRSMDPGYPKMIAHDFPGIGHKVDAVFMKDGFFYFFHGTRQYKFDPKTKRILTLQKANSWFNCRKN
B3: rhMMP2 (protein)
chain: YNFFPRKPKWDKNQITYRIIGYTPDLDPETVDDAFARAFQVWSDVTPLRFSRIHDGEADIMINFGRWEHGDGYPFDGKDGLLAHAFAPGTGVGGDSHFDDDELWTLGEGQVVRVKYGNADGEYCKFPFLFNGKEYNSCTDTGRSDGFLWCSTTYNFEKDGKYGFCPHEALFTMGGNAEGQPCKFPFRFQGTSYDSCTTEGRTDGYRWCGTTEDYDRDKKYGFCPETAMSTVGGNSEGAPCVFPFTFLGNKYESCTSAGRSDGKMWCATTANYDDDRKWGFCPDQGYSLFLVAAHEFGHAMGLEHSQDPGALMAPIYTYTKNFRLSQDDIKGIQELYGASPDIDLGTGPTPTLGPVTPEICKQDIVFDGIAQIRGEIFFFKDRFIWRTVTPRDKPMGPLLVATFWPELPEKIDAVYEAPQEEKAVFFAGNEYWIYSASTLERGYPKPLTSLGLPPDVQRVDAAFNWSKNKKTYIFAGDKFWRYNEVKKKMDPGFPKLIADAWNAIPDNLDAVVDLQGGGHSYFFKGAYYLKLENQSLKSVKFGSIKSDWLGC
B4: rmMMP9 (protein)
chain: FQTFKGLKWDHHNITYWIQNYSEDLPRDMIDDAFARAFAVWGEVAPLTFTRVYGPEADIVIQFGVAEHGDGYPFDGKDGLLAHAFPPGAGVQGDAHFDDDELWSLGKGVVIPTYYGNSNGAPCHFPFTFEGRSYSACTTDGRNDGTPWCSTTADYDKDGKFGFCPSERLYTEHGNGEGKPCVFPFIFEGRSYSACTTKGRSDGYRWCATTANYDQDKLYGFCPTRVDATVVGGNSAGELCVFPFVFLGKQYSSCTSDGRRDGRLWCATTSNFDTDKKWGFCPDQGYSLFLVAAHEFGHALGLDHSSVPEALMYPLYSYLEGFPLNKDDIDGIQYLYGRGSKPDPRPPATTTTEPQPTAPPTMCPTIPPTAYPTVGPTVGPTGAPSPGPTSSPSPGPTGAPSPGPTAPPTAGSSEASTESLSPADNPCNVDVFDAIAEIQGALHFFKDGWYWKFLNHRGSPLQGPFLTARTWPALPATLDSAFEDPQTKRVFFFSGRQMWVYTGKTVLGPRSLDKLGLGPEVTHVSGLLPRRLGKALLFSKGRVWRFDLKSQKVDPQSVIRVDKEFSGVPWNSHDIFQYQDKAYFCHGKFFWRVSFQNEVNKVDHEVNQVDDVGYVTYDLLQCP

Molecular target: Control (peptide of Table 12)

Protein	Specific Activity [pmol/min/µg]
B1	10
B2	10
B3	10
B4	10

Molecular target: Peptide 10

Protein	Specific Activity [pmol/min/µg]
B1	98.4
B2	10
B3	163
B4	111

Molecular target: T1, Peptide 5 (GPLGVRG)
T1 chain: GPLGVRG

Protein	Specific Activity [pmol/min/µg]
B1	10
B2	10
B3	260
B4	292

Molecular target: Peptide 8

Protein	Specific Activity [pmol/min/µg]
B1	70.9
B2	10.8
B3	260
B4	158
